# T1: mouse P-selectin (mouse, UniProt Q01102)
# T1 chain: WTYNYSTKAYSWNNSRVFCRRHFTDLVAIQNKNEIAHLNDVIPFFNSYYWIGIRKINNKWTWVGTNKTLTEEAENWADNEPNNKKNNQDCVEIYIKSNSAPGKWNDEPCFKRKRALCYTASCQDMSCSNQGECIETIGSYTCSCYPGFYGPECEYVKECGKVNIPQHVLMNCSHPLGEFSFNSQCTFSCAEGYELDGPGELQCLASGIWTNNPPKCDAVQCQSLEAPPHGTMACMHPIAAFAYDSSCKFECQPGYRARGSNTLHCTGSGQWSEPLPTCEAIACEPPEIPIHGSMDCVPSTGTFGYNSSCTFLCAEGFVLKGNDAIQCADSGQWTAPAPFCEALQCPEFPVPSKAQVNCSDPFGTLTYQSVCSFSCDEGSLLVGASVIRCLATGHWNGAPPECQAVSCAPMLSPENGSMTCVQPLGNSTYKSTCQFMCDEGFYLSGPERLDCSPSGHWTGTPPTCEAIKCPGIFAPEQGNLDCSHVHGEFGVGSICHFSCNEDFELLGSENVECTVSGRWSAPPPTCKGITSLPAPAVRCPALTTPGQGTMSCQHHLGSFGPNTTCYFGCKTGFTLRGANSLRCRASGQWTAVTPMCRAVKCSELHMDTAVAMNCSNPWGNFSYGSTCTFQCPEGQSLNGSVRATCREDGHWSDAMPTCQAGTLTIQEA
# Target: T1, mouse P-selectin
# Assay: SPR, 25C
row,Kd,Binder
1,630 nM,"NB.PSelscFv-Crry (2.3scFv-Crry, non-blocking) (antibody) MSVPTQVLGLLLLWLTDARCQIQLVLSGPELKKPGESVKISCKASGYTFTTYGMSWVKQAPGKGLKWMGWINTSSGVPTYADDFKGRFAFSLETSASTAYLQINNLKNEDTATYFCARGGGYYGAYYFYYWGQGTTLTVSSGGGGSGGGGSGGGGSDIQMTQSPASLSASVGETVTITCRTSDNINSYLAWYLQRQGKSPQLLVYNAKTLTEGVPSRFSGSGSGTQFSLKINSLQPEDFGSYYCQHHYGPPPTFGGGTKLEIKGGGGSGGGGSCPAPSQLPSAKPINLTDESMFPIGTYLLYECLPGYIKRQFSITCKQDSTWTSAEDKCIRKQCKTPSDPENGLVHVHTGIQFGSRINYTCNQGYRLIGSSSAVCVITDQSVDWDTEAPICEWIPCEIPPGIPNGDFFSSTREDFHYGMVVTYRCNTDARGKALFNLVGEPSLYCTSNDGEIGVWSGPPPQCIELNKCTPPPYVENAVMLSENRSLFSLRDIVEFRCHPGFIMKGASSVHCQSLNKWEPELPSCFKGVICRLPQEMSGFQKGLGMKKEYYYGENVTLECEDGYTLEGSSQSQCQSDGSWNPLLAKCVSRSIIEGRHHHHHH"
2,333 nM,"B.PSelscFv-Crry (2.12scFv-Crry, blocking) (antibody) MPMGSLQPLATLYLLGMLVASVLAHHHHHHIEGREVKLVESGGGLVQPGSSMKLSCTTSGFTFSDYYMAWVRQVPEKGLEWVANINYDGSSAYYLDSFKSRFTISRDNEKNILYLQMSSLKSEDTATYYCARGDWFVYWGQGTLVTVSAGGGGSGGGGSGGGGSDIQMTQSPSSMSASLGERVTITCKASQDINSYLNWFQQKPGKSPKTLIFRANRLVDGVPSRFSGSGSGQDYSLTISSLEFEDVGIYYCLQYAEFPFTFGSGTKLEIKGGGGSGGGGSCPAPSQLPSAKPINLTDESMFPIGTYLLYECLPGYIKRQFSITCKQDSTWTSAEDKCIRKQCKTPSDPENGLVHVHTGIQFGSRINYTCNQGYRLIGSSSAVCVITDQSVDWDTEAPICEWIPCEIPPGIPNGDFFSSTREDFHYGMVVTYRCNTDARGKALFNLVGEPSLYCTSNDGEIGVWSGPPPQCIELNKCTPPPYVENAVMLSENRSLFSLRDIVEFRCHPGFIMKGASSVHCQSLNKWEPELPSCFKGVICRLPQEMSGFQKGLGMKKEYYYGENVTLECEDGYTLEGSSQSQCQSDGSWNPLLAKCVSRSIIEGRHHHHHH"
